Assay results: the DeepSol protein solubility set

Test: soluble on expression in E. coli; label from the status in PepcDB or PDB records
For “MSEADQALVGPKADEPSPPAEEKDEGGGKEAAADAAPGPSASFRLMVTRREPAVKLQYAVSGLEPLSWSEDHRVSVSTARSVAVLELICDVHNPGQDLVIHRTSVPAPLNSCLLKVGSKTEVAECKEKFASSKDPTISQTFMLDRMFNPEGKALPPMRGFKYTSWSPMGCDANGRCLLAALTMDNRLTVQVNLNRLQWVQLVDLTEIYGDRLYETSYRLSKNEAPEGNLGDFAEFQRRHSMQTPVRMEWSSICTTQQVKHNNECRDVSS”, the “soluble on expression in E. coli” value was “not soluble”. In the case of “MGSDKIHHHHHHMEGKVKKAFPGGNTSQGSYSFFDYIIPENVKRVFCLKGGPGVGKSSLMKKIYKEFLHRGYDIDLYHCPSDPSSLDGLVIKKLGVVLMDATAPHTMDPKLPGALDEIINLGDYWNTEELEKNKQEISVYDKDISNSFKRAFKFLKSAEPIFRDIEEKYSDCMDYGKVNLVTEEFIKRLFDGVKSTGNLKREKHLFGSAITPVGCLDYTENILKDVKKVYYLDGEIGTGKTTLLNKVYKKAIEKGLNVEVYHYPLIPEKIETVLLTDLDIGITISTTFKEEDTIDLNQFLNREKLLKYEEDIKFDEKVLDDLICWAVLNLKRAKSKHDIIESYYSPNMRFDEVGKLRDKLIKRILKYEENL”, the “soluble on expression in E. coli” value was “not soluble”. With “MSDNDTIVAQATPPGRGGVGILRISGFKAREVAETVLGKLPKPRYADYLPFKDADGSVLDQGIALWFPGPNSFTGEDVLELQGHGGPVILDLLLKRILTIPGLRIARPGEFSERAFLNDKLDLAQAEAIADLIDASSEQAARSALNSLQGAFSARVNHLVEALTHLRIYVEAAIDFPDEEIDFLSDGKIEAQLNDVIADLDAVRAEARQGSLLREGMKVVIAGRPNAGKSSLLNALAGREAAIVTDIAGTTRDVLREHIHIDGMPLHIIDTAGLREASDEVERIGIERAWQEIEQADRVLFMVDGTTTDAVDPAEIWPEFIARLPAKLPITVVRNKADITGETLGMSEVNGHALIRLSARTGEGVDVLRNHLKQSMGFDTNMEGGFLARRRHLQALEQAAEHLQQGKAQLLGAWAGELLAEELRLAQQNLSEITGEFTSDDLLGRIFSSFCIGK” the “soluble on expression in E. coli” value was “soluble”. With “MLTRLAVEAAEQARLAAEVEAQRIAAETAEHARVVAEAEAKRVADEQALFAAEAEAHRITAEAAEQARMEAEAQAQRDADEHARVTAEAQALEAGKTLRLPEAGTPQLGAVAGVISVTAGSGLFLDATIQAAIEILAALVGTAVSSTTAVGIGTLLYSPSLGNGELPGRMLDLPARVLMPDLPDALNDVAATGGTVDMPYRIYGDQSKYSVVATQPEGGFSPKVPVRALILDPVANAYTFTTSDTPPITLTFPIAAPENSSTTTVAQPIETPAYTGITLEPIEVKAEPLPATSPLDIRDAIYVYPVNSGLPPVYVVFSSPYEGATTKGEHSGRMYDPDNAGGPTQNLDWTTASVTQNGIDLVKLHTGRFEPSDANAVMIDRLEKILRSELSMTDTDKRFYTHELRELERYRALGVADGVEGEVWNNAHTATLEDYKLKDSSESFYTPEAILEHHHHHH” the “soluble on expression in E. coli” value was “soluble”. In the case of “MVKKLYIKTNGCQMNEYDSSKMAEVLYASHGLVKTDQVEDADVILLNTCSIREKAQEKVFSQLGQWREYKAKNPHVLIGVGGCVASQEGSDIIKRAPFVDIVFGPQTLHRLPALLNERLEKNKSVVDISFPEIEKFDHLPAPRAEGPTAFVSIMEGCSKYCSFCVVPYTRGEEISRPFDDVLAECYQLASQGVREINLLGQNVNDYRGIMDNGDIADLALLIHYIAAIDGIGRIRFTTSHPLAFSENLINAYAEVPELANHLHLPVQSGSDRILSLMKRGYTALEFKSKIRKLRKIRPDIRLSTDIIVGFPGETDKDFQDTMDLVHEIGFDTSFSFIYSPRPGTPAANLPDDTPMEIKKQRLQILQNRLLMNAARYSESMIGSKQKILVTGFSKKSSQQLSGRTECNRVVNFDGPPHLIGQFIDVQISDALPNSLRGRLLEKEMQPALEHHHHHH”, the “soluble on expression in E. coli” value was “soluble”. In the case of “MGSDKIHHHHHHMFYQLYELNHAALQPARLYADAVRMFYSNPLNPIAHTHWGRSVAAGAELFERTTRRYGKPAFGLDKTVVDWKSVEVTEKTVWSKPFCNLVRFERAMPAGRKPDPKLLIVAPMSGHYATLLRGTVEAMLPYADVHITDWVDARMVPLVDGSFDLDDYIDYIIEMFHALGPDTHVMAVCQPSVPVLAAVALMEAKGDPFVPSTMTLMGGPIDTRRNPTAVNLLAEEKGIDWFRDNVVMRAPWPVPGFGREVYPGFLQLSGFMSMNLDRHIIAHKDFFMHLVKNDGDNAEKHRDFYDEYMAVMDLTAEFYLQTVDTVFVRHALPKGEMKHRGAAIDTSAIRNVALFTVEGENDDISGLGQTKAAQDLCINIPADKKAHYMQPAVGHYGVFNGSRFRSEIVPRIVDFITSYGRQNRVAVKPKLVRTAKR”, the “soluble on expression in E. coli” value was “not soluble”. In the case of “MSLKRILLSSDRSGSGKTLITSAIMRALSKKYKVRGFKAGPDFIDPGYHKIATGFPSINLDLWMMGKNNVKRSLAKYGKEFDIGIIEGVMGLYDGVDTLYSTYELAKVTKTPIILIINCSNIGSTVGAIVKGLKYYRSDVSIRGVIFNKIASETHYNYCRNAVEDVEVLGYVPFDKNLEIKSRHLGLVTVEDNREVQNLIRYASELVEKYVDLDKIYEMASDEDLEIDLPEDNESNGVKRKMAIAYDPAFSFYYQENLDILKNKYELEFFSPLNNEYVEDAEAIYIGGGYPELHLNELEKSTRTKKWLKNMSYAGVKIYAECGGLMYLSKNLIDENNKNHSMTGIFDIDIKTKDKLTIGYTELEAVKENFIVNKNNVVRGHEFHVSKPISVNEKEFVFKVRIGKGIINKLDGVKSNNTVASYSHLHFSNFQLRIVFEGHHHHHH”, the “soluble on expression in E. coli” value was “not soluble”. For “MEMVNAEAKQSVPLLTPYKMGRFNLSHRVVLAPLTRQKSYGSVPQPHAILYYSQRTSPGGFLIAEATGVSDTAQGYPDTPGIWTKEHVEAWKPIVDAVHAKGGIFFCQIWHVGRVSNRGFQPRRQAPISCTGKPIMPQMRANGIDEARFTPPRRLSIEEIPGIVNDFRLAARNAMEAGFDGVEIHGAHGYLIDQFMKDKVNDRTDEYGGSLQNRCKFALEVVDAVAKEIGPDRVGIRLSPFADYMESGDTNPEALGLYMVESLNKYGILYCHMIEPRMKTVGEIAACSHTLMPMREAFKGTFISAGGFTREDGNEAVAKGRTDLVAYGRWFLANPDLPKRFQLDAPLNKYNRSTFYTSDPVVGYTDYPSLESTA”, the “soluble on expression in E. coli” value was “soluble”. For “MTIRNFAIEYDAINDRNTFSNGDTLAGRVIVEVSKQTKITSLTVQAKGKANVAWTETHGEESVTYWDKEKYFSQTQSVLPEDKADGSVTLVAGRHVFPFAFQLPNQSLPSSFKGVHGKIHYRLMAKLSRSFRAASKAEAKFTFVARADYDTSTLTTPQHGSKDKNVMFFASGNISMDIFLPKTGYQQGEGLIVNGEIVNSSTRKIVPKYIIYQKQSFFAGGQRAVHTTEILKEKGEPLVSSTRENLYKVLPLPPEISSTIHNCRILKVEYRLKVILDVSFTKNPVIKLPFIVLPLCNETPPKAIEEGLYPDLAKMKISN”, the “soluble on expression in E. coli” value was “soluble”. In the case of “MTELQHPVLVVDDETDILDLMEMTLMKMGLRVHTASGVAEAKNKLDSQRYSLVLTDMRMPDGSGLEVVQHINSRLLDTPVAVITAFGNADQAQEALRCGAFDPDTMQIQDYLDQIERDIIEQTLKQTEGNRTQAAKRLGISFRSMRYRMERLNIG”, the “soluble on expression in E. coli” value was “not soluble”. For “MYNVVSFNNEGVEHMKPTSEKSKEIRKKYKAPGASDEQLANSIKVASEFEYKNSSTFGWGGVYMVDRFQSMITGRAITNNTQKLLDAQALEEEASKANLKQ”, the “soluble on expression in E. coli” value was “not soluble”. With “MSSPYSPREWLQLNMQQQGLLQPQTSVGQLIACLGYVQIDSINVVERAHHHVLHSRMPQYQPQMLDTALAQGEIFEYWSHAAAYLPIADYRFSLQRKQQLQNGGKHWFEPDDNAMQEVRARIRAEGPLKASDFEHTEGKNGAWWDWKPAKKALEQLFMRGELMVVRREKFQKCYDLTERVLPSHINTLAPSDSEFARHLISRYLDAHAFGSAAQIAYLRKGIKANVNQQLAAMQSQGELASFKAEGQWYFYRPELQITAAMPNRVWLLNPFDNLLIQRQRLKQWFDFDYQIEVYVPAEKRQYGYYSLAILWRDRFVGRVDVKADRQSGLLLLQQLTLEEGFDGMDEGFCSAFEATVSEYARFNICSRWKLVKANHKAFKLEHHHHHH” the “soluble on expression in E. coli” value was “not soluble”. With “MINLKGITKSFQNGAESIQILHGIDVTLNQGEFTSIMGPSGSGKSTLMNIIGCLDKPTTGTYELAGQNISNMSKTELAHVRNKEIGFVFQNFMLLPRLSALQNVELPLIYAGVDKKERRERSLAALTKVGLADRATHLPNELSGGQKQRVAVARAIVNNPKFILADEPTGALDTKTSTQIMDLFYELNKQGSTIIMITHDREIGEAAARQIVIRDGNIVQDWRG” the “soluble on expression in E. coli” value was “not soluble”. In the case of “MTLPPVGSTLYSKGTHNYKGLFKECATVGSTLYSKGTHNDADNVPVLRLVGSTLYSKGTHNSRLARPPTRLVGSTLYSKGTHNMILDWWLGRWNVQ”, the “soluble on expression in E. coli” value was “not soluble”. For “STDIQMTQSPSSLSASVGDRVTITCQASQDINNYLIWYQQKPGQAPKLLIYDASTLETGVPSRFSGSGSGTEFTFTISSLQPEDLATYYCQQYDNLPYTFGQGTKLEIKR”, the “soluble on expression in E. coli” value was “soluble”. With “MGSDKIHHHHHHLGPPTPLGLRAAPHNVTNLAQTPLAERLRSLVDTVQHNERTLRRFQSVELRLIGAQDFASFLDTLFGQLPREFSLAGVTLWLDDRAPMLRELLEPVALRALDQPRLRTSREGGLAAQGLCEDGRPWLGTPRELDDTVRRAFFGDAEQVPASAILLPLASGDTVGGYLWLGSDDAARFAQGMATDILERFASIVTASLDNVAHRERLKQLGMTDSLTGLANRRYFDERLREEVMRAVRYRMPVACLFIDIDSFKRINDTYGHQTGDRALAAVAACVRQQVRLGDTVARYGGEEFAALLQGDRADALTVAERVRLAVERLALQDDHGERIALTVSIGVAARMVSGTPTEAAMLGGAIIEEADRAMYQAKRNGRNRIEALVNASGDHTAG” the “soluble on expression in E. coli” value was “not soluble”. For “MGSDKIHHHHHHMDIKLKDFEGPLDLLLHLVSKYQVDIYEVPITEVIEQYLAYIATLQAMRLEVAGEYMLMASQLMVIKSRRLLPKVVEQIDPEDDPEMDLLDQLEEYRKFKLLSEKLGEQHDERANYFSKPKLDLIYDDVQLAKDKTIIDIFLAFSKVMAEKQASLRQSHATIARDEYKIEDMMDFVRSRFETGPRLELRQLFQESQDVNEMITIFLATLELVKVHEIVLEQTETFGDIYLVRSEDESLS”, the “soluble on expression in E. coli” value was “not soluble”. In the case of “MGHHHHHHSHMGVAGTPGLPESPDKSPVGRKKSKGLATRLSRRRVSCRELGRPDCDGWLLLRKAPGGFMGPRWRRRWFVLKGHTLYWYRQPQDEKAEGLINVSNYSLESGHDQKKKYVFQLTHDVYKPFIFAADTLTDLSMWVRHLITCISKYQSP”, the “soluble on expression in E. coli” value was “soluble”. For “MGSDKIHHHHHHMKITIYSKDLYTYGAMLVGGILKETHKHNIKLIKDIKNKKLFLKSDIVILSLYSTLNIIDPVIKDTVDYLKSKNIKIYVAGPVSAYPEIILNELNVDGVILGEGELTTPEIINGSKDGLAYFENGEMIVNKPKSKPDLDFSKIYVPKDIAAQNVRGANVYIETHRGCLGHCTFCQVPEFFGRDIRSKPIELIIEEVNELKKNGVNRIAISGGTGSLYNFKNTVNKNKFIEMIESVSNIIGRQNLSVPDMRVDYVDEEVLNAIKNYSIGWVFYGIESGSDKLLNSMKKGTNSKKNLKAIELAKDCGVKVAGSFIVGHPKEKEVDFLMTKDFIVDAELDDVFVSAAEPIPKTELCTEVLNTKMDENPTFISHNGPYRRYGLKENEARAYDLMLHSEMWKSTPRVITTNLSKVYLDEAKMQGSDIRKATELIFKYRDFLI”, the “soluble on expression in E. coli” value was “not soluble”. In the case of “MGSDKIHHHHHHMLPLDSLSDCASKSYLLTHLPDLNHRHLSSSVSTNSELIAAVQDGTLNATAMHLLTAETQSAGRGQHGRSWQSPRGNVYLSLYHPVHIPISGLLSLIIGVELAKMPIIQTLNDQLCAQGLTPIGVKWANDLGFYSYQYHHQSELHKILLANEMTPFHKLAGILIEPVTQAGKLVGIVMGVGLNVQATPKLTAQTCEGMSYQAISLQDIKQLLEPDKSASALLSLRELYQQMSKALMAAMTRFEHLGLEKPTGQTYNLDSFLKQFDSMDALAGLRLRITQEHNGQTETLTGYACGIDTHGCLQLRQDNGNISALFTGRIDVIDNA”, the “soluble on expression in E. coli” value was “not soluble”.
